Reference: patent US20200140557A1 (published 2020)

T1: human FGFR1b extracellular domain
T1 chain: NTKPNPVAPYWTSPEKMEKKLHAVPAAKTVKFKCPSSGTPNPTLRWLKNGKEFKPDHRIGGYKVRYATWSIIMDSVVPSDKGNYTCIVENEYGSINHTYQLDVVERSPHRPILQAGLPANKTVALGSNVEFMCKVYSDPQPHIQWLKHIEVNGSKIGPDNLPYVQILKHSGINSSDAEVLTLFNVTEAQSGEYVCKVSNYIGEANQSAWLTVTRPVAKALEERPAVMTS


Target: T1, human FGFR1b extracellular domain
Assay: SPR

| Kd | Binder |
| --- | --- |
| 0.59 nM | R1MAb1 (antibody) chain 1: EVQLVESGGGLVQPGGSLRLSCAASGFTFTSTWISWVPGKGLEWVGEIDPYDGDTYYADSVKGRFTISADTSKNLQMNSLRAEDTAVYYCASSGYGGSDYAMDYWGQ chain 2: DIQMTQSPSSLSASVGDRVTITCRASQDVSTAVAWYQQKPGKAPKLLIYSASFLYSGVPSRFSGSGSGTDFTLTISSLQPEDFATYYCQQSYTTPPTFGQGTKVEIKR |
| 0.44 nM | R1MAb2 (antibody) chain 1: EVQLVESGGGLVQPGGSLRLSCAASGFTFSNNYIHWVPGKGLEWVADIYPNDGDTDYADSVKGRFTISADTSKNLQMNSLRAEDTAVYYCAREHFDAWVHYYVMDYWGQ chain 2: DIQMTQSPSSLSASVGDRVTITCRASQDVSTAVAWYQQKPGKAPKLLIYSASFLYSGVPSRFSGSGSGTDFTLTISSLQPEDFATYYCQQSYTTPPTFGQGTKVEIKR |
